Molecular target: muscarinic acetylcholine receptor type 1 (M1R) (human) (UniProt P11229)
Sequence of UniProt P11229 (P11229 whole entry): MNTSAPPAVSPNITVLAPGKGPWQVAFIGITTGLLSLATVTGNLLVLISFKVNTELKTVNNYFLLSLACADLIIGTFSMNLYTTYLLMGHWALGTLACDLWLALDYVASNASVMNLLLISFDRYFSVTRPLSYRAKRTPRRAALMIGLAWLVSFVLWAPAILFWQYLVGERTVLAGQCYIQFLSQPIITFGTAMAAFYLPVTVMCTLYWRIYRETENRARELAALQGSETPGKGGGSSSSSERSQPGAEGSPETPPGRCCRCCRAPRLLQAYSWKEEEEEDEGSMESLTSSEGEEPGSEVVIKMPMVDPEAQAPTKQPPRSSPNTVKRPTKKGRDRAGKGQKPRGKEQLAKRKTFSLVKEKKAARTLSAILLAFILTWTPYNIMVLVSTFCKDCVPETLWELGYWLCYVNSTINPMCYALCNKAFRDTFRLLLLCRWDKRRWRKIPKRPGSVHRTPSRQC

M1R-induced [3H]GDP release from Gi3 Δ5 (Fig. 3c) (% GDP release): 20
Substance: Gi3_Δ5 (Gαi3 with the last five residues truncated, with added Gβγ) (from UniProt P08754 1-349; P62873 1-340; P59768 1-71) (complex)
